Source: the RNAGym collection of RNA variant scans (doi:10.1021/acssynbio.7b00057)

B1: Pistol ribozyme (parent)
chain: GGGUCGUUGUUCCAUAAUCGCGUGGAUAUGGCACGCAAGUUUCUACCGGGCACCGUAAAUGUCCGACUGGAGCCGUUCGGGCGGCUAUAAACAGACCUCAGGCCCGAAGCGUGGCGGCACCUGCCGCCGGUGGUAAAAAAGAUCGGAAGAGCACACGUCU

Variants of: B1
Assay: aptazyme ON/OFF ratio, guanine; higher = stronger switching; co-transcriptional cleavage with and without guanine

Variant | aptazyme ON/OFF ratio
U7G U8C G9C U10G U11G C12G | 1.13
U7G U8C G9C U10A C12A C13G | 1.08
U7C G9U U10C C13G | 1.06
U7A U8G G9U U10G C12G C13A | 1.37
U8A G9C U10G U11A C12G C13U | 1.15
G9U U11G C12G | 2.82
U7A G9A U10A C13A | 1.26
U7C U8C U10G C12U C13G | 1.1
U7G U8C G9U U10A U11G C13G | 1.1
U7C G9C U10A U11C C12G C13G | 1.27
U7A U8C G9C U10G C12U C13A | 1.06
U7A U8C G9A U10C U11A C12U C13A | 1.12
U7A U8G G9C U10A U11G C12G C13A | 1.14
U7C G9A U11C C12U C13A | 1.17
U7A G9C U10C | 2.21
U7G G9U U10G C12U | 1.55
U7C U8C G9C U10C U11C C12U C13A | 1.08
U8G G9A U10A U11C C12G | 1.23
U7G U8G G9A U10C C12G | 1.28
U7A U8C U10C U11C C12A C13A | 1.09
U7C U8G G9C U10C U11A C13A | 1.21
U7C | 1.31
U7C G9C U10A C12U C13U | 1.04
U7A U10A U11A C13A | 1.19

Variant | aptazyme ON/OFF ratio
U7C U8G G9U U10C C13U | 2.24
U7G U8A G9C U10C U11C C12A C13U | 1.03
U7C U8A G9A U11G C12U C13U | 1.18
U7G U8C G9U U10A U11C C12U | 1.72
U7C U8A U10C U11A C12G | 1.2
U7G U8G G9A U10C U11C C12A C13U | 1.11
U7C U8G G9C C12A C13G | 1.09
U8G U11G C12G C13A | 1.08
U8G U10A C12G C13U | 1.28
G9A U10G U11G C12G | 1.25
U8C U10G U11C C12U C13G | 1.19
U7C U8A G9U U11C C12G C13U | 1.16
U7C U8C G9U U10A U11G C12U C13U | 1.14
C13U | 1.38
U7A U8A G9A U10A U11A C12A C13U | 1.34
U7C U8C G9C U10A U11A C12A C13G | 1.03
U7G U8C G9A U11A C12U C13U | 1.05
U7A U8A G9C U10A C12U C13G | 1.1
U7A U8C G9A U10G U11A C12U C13G | 1.14
U7C U8A G9C U10C U11C C13U | 1.03
U7C U8A U10G U11G C12A C13G | 1.09
U7A U8C G9A U10C U11C C12G C13U | 1.06
U7A G9U U10A U11A C12U C13U | 1.06
U7G U8A G9U U10G C12U C13G | 1.03

Variant | aptazyme ON/OFF ratio
U7C U8G G9U U10A U11C C12U C13A | 1.09
G9U U10G U11C | 1.28
U7A U10C U11C C12A C13U | 1.1
U7A U8A G9U U10C U11A C12A C13A | 1.2
U7C U8A G9U C12G C13G | 1.21
U8A G9C C12G C13G | 1.14
U7C U8G G9U U11A C12U C13U | 1.45
U7G U8A G9A U10G U11C C12G C13U | 1.11
U7G G9C U10C C12A C13G | 1.16
U8A G9A U11G C12U | 1.35
G9A U10C U11C C13G | 1.07
U7C U8G U10G U11C C12A C13U | 1.42
U7G U8C C12U | 1.2
U7G U8A G9C U10A U11C C12U | 1.04
U7G U8A G9A U10G U11A C13U | 1.03
U7G U8G G9A C12U | 1.68
U7C U8A G9A U11G C13A | 1.18
U8G U10C C12U C13A | 1.05
U7C U8G G9U U11A C12G C13U | 1.08
U7C U8G G9C U11C C12G C13A | 1.4
U7C G9C U10C C12G C13G | 1.12
U7G C12G C13G | 1.14
U7A U8A G9A U10C C13U | 1.09
U7C G9U U10A U11G C12A | 1.08

Variant | aptazyme ON/OFF ratio
U8A G9A U10A C13U | 1.2
U8G U10C U11C C13A | 1.03
U7C U8A U10C U11C C12G C13G | 1.12
U8A G9U U10C C13A | 1.08
U7G U8G G9U C13U | 1.43
U7C U8A G9A U11A C12A | 1.2
U7A U8A G9U U10G U11A C12G C13G | 1.4
U7A U8G G9A U10A U11A C12G C13U | 1.37
U7C U8C G9C U11G C13U | 1.1
U7C U8A G9C U10G U11C C12A C13G | 1.21
U7G U8C U10G U11G C12U C13A | 1.26
U7G U8A G9C U11C C12U C13U | 1.03
U7C U8G G9A U10G U11C C12A | 1.41
U7G U8A G9A C12A C13A | 1.25
U7C G9C U10A U11A C12G C13A | 1.08
U7C U8A U10A U11A C12G C13A | 1.23
U7G G9A U10C U11G C12G | 1.15
U8A G9C U10A U11A C12U C13G | 1.19
U7C U8G G9A U10C U11A C12U | 1.09
U7G U8C G9A U10G U11C C12A C13U | 1.19
U7C U8G G9U U10A U11A C12G | 1.11
U10G U11G C12A C13A | 1.15
U7C U8G U11C C13A | 1.3
U7C U8C G9C U10C C12A C13A | 1.06

Variant | aptazyme ON/OFF ratio
G9A U10G U11A C12G C13G | 1.45
U7A U8A G9U U10G U11C C12U | 1.08
U7A U8A G9A U11A C12A C13G | 1.21
U7A U8G U10C U11A C12U C13G | 0.954
U8G G9U U10C U11A C12G | 1.12
U7C U8G G9C C12A C13U | 1.31
U10A C12A | 1.62
U8A G9A U11G C13U | 1.17
U8G G9U U11G C12G C13A | 1.21
U7A U8G G9C U11C C12G | 1.65
U8C G9C U10A C12U C13U | 1.14
U7C U8G G9U U10A U11G C12G C13G | 1.18
U7C U8G G9A U10A U11G C12A C13A | 1.13
U8C G9U U10C U11G C12U | 1.22
U7C G9C U11C C12A C13G | 1.02
U7G U8C G9U U11A C12A | 2.91
U7C U8C G9C U10A U11C C12G C13A | 1.21
U7G G9U U10A C12G C13A | 1.09
U7A G9U U10G U11C C12U C13G | 1.19
U7C U8G U10C U11C C12G C13U | 1.24
U7C G9A U10A U11C C12A C13G | 1.1
U7G U8A G9U U11A C12A C13A | 1.16
U7C U8G G9C U10G U11A C12A C13U | 1.23
U7A U8C U10G C12G C13A | 1.09

Variant | aptazyme ON/OFF ratio
U8C G9C U10C U11C C12U C13U | 1.01
U7A U8A G9A U10G U11A C12G | 1.13
U8G G9C U10A U11A C12A C13U | 1.18
G9C U11G | 2.2
U7A U8G G9C U10G U11G C12A C13G | 1.16
U7G U8G U10A U11G C12G C13U | 1.22
U7A U8C G9C U10C U11A C12U C13G | 1.01
U7G U8C U10C U11G C12A C13U | 1.29
U7C U8C G9A U10G U11A C12A C13A | 1.17
U7A U8G G9A U10G C12G C13A | 1.5
U7A U8A G9C U10C U11A C12U | 1.07
U7A U8C G9C U10C U11G C12A C13A | 1.18
U7G G9A U11G C12U C13G | 1.11
U8G G9A U10C U11G | 1.34
U7G G9C C13U | 1.45
U7A U8C G9U U10A U11C C12U C13U | 1.18
U7C U8C G9C U10C U11C C12A | 1.04
U7A U8C C12G C13G | 1.19
U7G U8A G9A U10C U11C C12U | 1.06
U7C G9U U10A U11G C12U C13G | 1.11
U7G U8A G9C U10C U11C C13U | 1.03
U8G G9A U10G U11C C12A | 1.19
U7C U8G U10G U11G C12A C13G | 1.19
U7A G9A U10A U11G C12G C13U | 1.25

Variant | aptazyme ON/OFF ratio
U7G U8G G9U U10A C12A | 1.28
U7C U8A G9C U10C C12G C13U | 1.07
U7A U8C G9C U10G U11A C12G C13G | 1.17
U7C U8A G9U U11A C12A C13A | 1.08
U7A G9U U10G U11C C12G C13G | 1.17
U7G U8G U10C U11C C13G | 1.07
U7G U8A G9C U10G C12G C13A | 1.06
U7C U8A G9C U10G U11A C12G C13G | 1.19
U8A U10C U11A C12A C13G | 1.1
U7A U8G G9A U11C C12G | 1.56
U7C U8C U10C U11C C12U | 1.26
U8A U10A U11C C12G C13A | 1.1
U7C G9U U10C U11G C12U C13A | 1.14
U7C U8G G9C U11G C12A C13U | 1.14
U7A U8A U10G U11G C12G | 1.33
U7A U11G C12G C13A | 1.13
U7C U8G G9A U10G U11A C12U | 1.16
U7G G9A U10C U11A C12G | 1.15
G9U U10A | 3.18
U8G G9U U10C U11C C13A | 1.04
U7C U8A G9U U10C U11G C12G | 1.11
U7A U8C G9U U11C C13U | 1.05
U7G U8G G9A U10A U11A C12U C13A | 1.03
